# B1: WT alemtuzumab (antibody)
# chain 1: not shown
# chain 2: not shown
# Molecular target: extracellular region of human V158 FcγRIIIa fused with glutathione S-Transferase (GST) (human, UniProt P08637 17-208)
# Assay: AlphaScreen competition
binder,measurement,value
B1,IC50,4.6 nM
